Bridges are numbered along the chain shown (N, C = ends). The star is where a group is joined. Biotin = O=C1N[C@H]2[C@H](CS[C@H]2CCCCC(=O)*)N1
Legend:
NADPH oxidase = system: NADPH oxidase; set-up: method as in 8 sources, one per row (each row's own in cited_ref): ref Shpungin et al., [1989] ||| ref Bellavite et al., [1983]; Gabig and Lefker, [1984] ||| ref Pick et al., [1987] ||| ref Le Cabec and Maridonneau-Parini, [1995] ||| ref Nishida et al., [2005] ||| ...; details: ref Paes et al., [2011], cited from earlier work
[1] = PDI reductase activity, DE-GSSG reduction; assay type: biochemical
p67^phox(1–526) = test: Effect of thiol reagents on binding of p67phox(1–526) to Nox2 peptide 24; details: 1 h room temperature
[2] = biological target: NADPH oxidase (macrophage membrane liposomes, cytochrome b558) (Cavia porcellus, UniProt H0UXC6); assay type: biochemical, guinea pig
p67^phox(1–212) = biological target: T1, p67^phox(1–212) (UniProt P19878 1-212); test: ELISA; peptide—protein binding assay as a1, with peptide 24 and the modified peptides, all in the reduced form, subjected to oxidation by 1 mM H2O2; details: both partners purified
T1 construct: contains four cysteines (40, 45, 121, 165); source: E. coli, purified (Nickel Sepharose); not shown: 6His, N-terminal, kept
T1 sequence (looked up): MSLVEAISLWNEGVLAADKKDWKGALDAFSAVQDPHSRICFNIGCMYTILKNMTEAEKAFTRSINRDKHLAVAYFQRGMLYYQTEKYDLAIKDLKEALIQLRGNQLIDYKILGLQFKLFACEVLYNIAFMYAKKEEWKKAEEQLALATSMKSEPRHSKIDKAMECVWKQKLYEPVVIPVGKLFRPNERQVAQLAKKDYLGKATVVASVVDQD

oxidized PDI: exogenous oxidized PDI
effect of exogenous PDI on oxidase activation in vitro (NADPH oxidase): enhance

NC(=O)C1=CN([C@@H]2O[C@H](COP(=O)(O)OP(=O)(O)OC[C@H]3O[C@@H](n4cnc5c(N)ncnc54)[C@H](OP(=O)(O)O)[C@@H]3O)[C@@H](O)[C@H]2O)C=CC1 [NADPH]
replacement of DTT in the DE-GSSG reduction assay ([1]; up to 125 μM): could not be replaced

reduced PDI: exogenous reduced PDI
effect of exogenous PDI on oxidase activation in vitro (NADPH oxidase): diminish

CN(C)C(=O)/N=N/C(=O)N(C)C [diamide]
effect of pretreatment of p67phox on low affinity binding to native form of peptide 24 (p67^phox(1–526); NEM 0.1 mM or diamide 5 mM, three experiments (Figure 2A,B)): suppressed
effect of diamide pretreatment of p67phox on binding to peptide 24 in the disulfide form (p67^phox(1–526); p67^phox(1–526) 1.5 μM, diamide 5 mM, three experiments (Figure 2B)): totally abolished

16F16
inhibition of oxidase activation, in words [2]: Lack of an inhibitory effect

B1: scrambled RNAse: ribonuclease A, with scrambled disulfide bonds from bovine pancreas (protein, UniProt P61823 27-150, looked up)
Ribonuclease pancreatic: KETAAAKFERQHMDSSTSAASSSNYCNQMMKSRNLTKDRCKPVNTFVHESLADVQAVCSQKNVACKNGQTNCYQSYSTMSITDCRETGSSKYPNCAYKTTQANKHIIVACEGNPYVPVHFDASV
modifications: scrambled disulfide bonds
notes: ribonuclease A, with scrambled disulfide bonds from bovine pancreas
IC50, NADPH oxidase activation [2]: could not be determined
inhibition of oxidase activation, in words [2]: ineffective
inhibition of oxidase activation, amphiphile-dependent cell-free system (NADPH oxidase; neutrophil membranes and recombinant cytosolic components): inhibit oxidase activation

B2: Nox2 peptide 24 (357–371) with an intramolecular disulfide bond between C369 and C371 (peptide)
peptide: Biotin-SGSGIVGDWTEGLFNACGC-NH2
modifications: disulfide 17-19
SMILES: CC[C@H](C)[C@H](NC(=O)CNC(=O)[C@H](CO)NC(=O)CNC(=O)[C@H](CO)NC(=O)CCCC[C@@H]1SC[C@@H]2NC(=O)N[C@@H]21)C(=O)N[C@H](C(=O)NCC(=O)N[C@@H](CC(=O)O)C(=O)N[C@@H](Cc1c[nH]c2ccccc12)C(=O)N[C@H](C(=O)N[C@@H](CCC(=O)O)C(=O)NCC(=O)N[C@@H](CC(C)C)C(=O)N[C@@H](Cc1ccccc1)C(=O)N[C@@H](CC(N)=O)C(=O)N[C@@H](C)C(=O)N[C@H]1CSSC[C@@H](C(N)=O)NC(=O)CNC1=O)[C@@H](C)O)C(C)C
notes: spacer between the N-terminal biotin and the peptide, printed as Ser-Gly-Ser-Gly; also called 24N CGC S-S; 24N S-S; source: synthetic peptide (Mimotopes or Bachem), synthesized in the disulfide form; also made from the reduced peptide by oxidation with 1 mM H2O2; not shown: biotin, N-terminal, kept
binding result (p67^phox(1–212)): binds

B3: Nox2 peptide 24 analog with CGC replaced by CysGlyHisCys, intramolecular disulfide bond between cysteines 369 and 372 (peptide)
peptide: Biotin-SGSGIVGDWTEGLFNACGHC-NH2
modifications: disulfide 17-20
SMILES: CC[C@H](C)[C@H](NC(=O)CNC(=O)[C@H](CO)NC(=O)CNC(=O)[C@H](CO)NC(=O)CCCC[C@@H]1SC[C@@H]2NC(=O)N[C@@H]21)C(=O)N[C@H](C(=O)NCC(=O)N[C@@H](CC(=O)O)C(=O)N[C@@H](Cc1c[nH]c2ccccc12)C(=O)N[C@H](C(=O)N[C@@H](CCC(=O)O)C(=O)NCC(=O)N[C@@H](CC(C)C)C(=O)N[C@@H](Cc1ccccc1)C(=O)N[C@@H](CC(N)=O)C(=O)N[C@@H](C)C(=O)N[C@H]1CSSC[C@@H](C(N)=O)NC(=O)[C@H](Cc2c[nH]cn2)NC(=O)CNC1=O)[C@@H](C)O)C(C)C
notes: spacer between the N-terminal biotin and the peptide, printed as Ser-Gly-Ser-Gly; also called 24N CGHC S-S (disulfide form); source: synthetic peptide (Mimotopes or Bachem), synthesized in the disulfide form; also made from the reduced peptide by oxidation with 1 mM H2O2; not shown: biotin, N-terminal, kept
binding result (p67^phox(1–212)): binds

B4: NusA-Nox2(372–570): fusion protein of NusA and Nox2 residues 372–570, lacks the CGC triad (protein)
chain: DKQEFQDAWKLPKIAVDGPFGTASEDVFSYEVVMLVGAGIGVTPFASILKSVWYKYCNNATNLKLKKIYFYWLCRDTHAFEWFADLLQLLESQMQERNNAGFLSYNIYLTGWDESQANHFAVHHDEEKDVITGLKQKTLYGRPNWDNEFKTIASQHPNTRIGVFLCGPEALAETLSKQSISNSESGPRGVHFIFNKENF
modifications: left off: NusA (E. coli), N-terminal, kept | His tag (from the purification on Nickel Sepharose), end not stated, state not stated
notes: fusion protein of NusA and Nox2 residues 372–570, lacks the CGC triad
loss of PDI activity ([1]; 2 μM (Figure 6C)): almost complete loss of PDI activity
Vmax, PDI reductase activity (Figure 6C) ([1]; 2 μM, DE-GSSG 800 nM, DTT 12.5 μM, one characteristic experiment, DTT only 26,248): 31,920 milli relative fluorescence units per min
